Test results published in US6759384.
No end group written: not given here.

T1: human factor Xa (Enzyme Research Laboratories, Inc.) (human), P00742
T1 chain 1: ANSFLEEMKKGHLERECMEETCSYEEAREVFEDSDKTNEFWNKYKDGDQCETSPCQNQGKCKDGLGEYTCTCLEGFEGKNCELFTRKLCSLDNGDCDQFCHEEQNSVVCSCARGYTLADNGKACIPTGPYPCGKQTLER
T1 chain 2: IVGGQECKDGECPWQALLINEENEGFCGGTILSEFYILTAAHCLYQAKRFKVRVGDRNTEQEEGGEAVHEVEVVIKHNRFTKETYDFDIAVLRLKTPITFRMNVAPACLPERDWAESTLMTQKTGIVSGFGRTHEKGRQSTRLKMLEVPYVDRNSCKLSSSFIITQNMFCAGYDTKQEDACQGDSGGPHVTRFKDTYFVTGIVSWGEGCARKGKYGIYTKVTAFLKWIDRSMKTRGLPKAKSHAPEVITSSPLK


Target: T1, human factor Xa (Enzyme Research …)
Assay: chromogenic FXa inhibition

Ki, < 100 µM:
Ac-GYIRL-NH2 [Ac-G-Y-I-R-L-NH2]
GYIRK-NH2 [G-Y-I-R-K-NH2]
GYIRL-NH2 [G-Y-I-R-L-NH2]
Ac-GYIRG-NH2 [Ac-G-Y-I-R-G-NH2]
GYIRT-NH2 [G-Y-I-R-T-NH2]
GYIRI-NH2 [G-Y-I-R-I-NH2]
GYIRH-NH2 [G-Y-I-R-H-NH2]
GYIRG-NH2 [G-Y-I-R-G-NH2]
GYIRG (modifications not checked) [G-Y-I-R-G]
EYIRK-NH2 [E-Y-I-R-K-NH2]
WIREK-NH2 [W-I-R-E-K-NH2]
